Source: the supplement of paper PMC7877785
± gives the uncertainty stated by the source.

Experiment: self-splicing fitness, log relative to wild type (ln ratio); higher = more splicing; Tetrahymena group I intron in knt gene, E. coli kanamycin selection, DiMSum; sequences stand for … in CUCUCU…GGAGGGAAAAGUUAUCAGGCAUGCACCUGGUAGCUAGUCUUUAAACCAAUAGAUUGCAUCGGUUUAAAAGGCAAGACCGUCAAAUUGCGGGAAAGGGGUCAACAGCCGUUCAGUACCAAGUCUCAGGGGAAACUUUGAGAUGGCCUUGCAAAGGGUAUGGUAAUAAGCUGACGGACAUGGUCCUAACCACGCAGCCAAGUCCUAAGUCAACAGAUCUUCUGUUGAUAUGGAUGCAGUUCACAGACUAAAUGUCGGUCGGGGAAGAUGUAUUCUUCUCAUAAGAUAUAGUCGGACCUCUCCUUAAUGGGAGCUAGCGGAUGAAGUGAUGCAACACUGGAGCCGCUGGGAACUAAUUUGUAUGCGAAAGUAUAUUGAUUAGUUUUGGAGUACUCGUGGUCG
Procedure, shortened: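 Pooled colonies went to amplicon sequencing on an Illumina HiSeq 2500 after six replicate transformations. The plates were LB agar with 100 μg/mL carbenicillin, 50 μM IPTG and 0.2% rhamnose, with or without 25 μg/mL kanamycin, incubated overnight at 37°C or 30°C. The E. coli BL21(DE3) library had all eight P1ex-region intron nucleotides randomised, the intron placed in the knt kanamycin-resistance gene on pET-22b(+). DiMSum fitness is the error-weighted combination of replicate fold changes, kanamycin against none, normalised to wild type.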

Sequence | self-splicing fitness (ln) (30 °C) | self-splicing fitness (ln) (37 °C)
UGGCAGCAAUAUUACGCUGU | -2.97 ± 0.15 | -2.18 ± 0.21
UGGCAGCAAUAUUACGGCAG | -0.148 ± 0.12 | 0.163 ± 0.14
UGGCAGCAAUAUUACGGGCA | -0.0254 ± 0.11 | -0.0149 ± 0.12
UGGCAGCAAUAUUACGGGGU | -3.97 ± 0.13 | -2.62 ± 0.14
UGGCAGCAAUAUUACGGUUG | -1.46 ± 0.07 | -1.04 ± 0.082
UGGCAGCAAUAUUACGUCUG | -1.31 ± 0.082 | -0.936 ± 0.11
UGGCAGCAAUAUUACGUGCG | -0.238 ± 0.061 | 0.163 ± 0.084
UGGCAGCAAUAUUACGUUCA | -0.133 ± 0.084 | 0.272 ± 0.1
UGGCAGCAAUAUUACGUUUC | -3.1 ± 0.14 | -2.77 ± 0.26
UGGGAGCAAUAUUACGAAAC | -1.85 ± 0.22 | -1.79 ± 0.49
UGGGAGCAAUAUUACGAACA | -1.33 ± 0.088 | -1.02 ± 0.091
UGGGAGCAAUAUUACGAAUG | -1.99 ± 0.21 | -2.07 ± 0.33
UGGGAGCAAUAUUACGAGCA | -1.28 ± 0.18 | -0.71 ± 0.18
UGGGAGCAAUAUUACGAGCU | -3.52 ± 0.37 | -1.69 ± 0.25
UGGGAGCAAUAUUACGAGGA | – | -3.9 ± 0.47
UGGGAGCAAUAUUACGAGGC | -2.02 ± 0.35 | –
UGGGAGCAAUAUUACGCGUA | -0.6 ± 0.38 | 0.46 ± 0.3
UGGGAGCAAUAUUACGCUGC | – | -1.15 ± 0.28
UGGGAGCAAUAUUACGCUUC | -1.91 ± 0.36 | –
UGGGAGCAAUAUUACGGAGG | -3.43 ± 0.36 | –
UGGGAGCAAUAUUACGGGCG | -2.4 ± 0.27 | -0.751 ± 0.26
UGGGAGCAAUAUUACGGGCU | -1.78 ± 0.35 | –
UGGGAGCAAUAUUACGGUAG | -3.16 ± 0.28 | -1.26 ± 0.21
UGGGAGCAAUAUUACGGUCU | -4.3 ± 0.32 | -2.09 ± 0.22
UGGGAGCAAUAUUACGGUUG | -2.07 ± 0.22 | –

Sequence | self-splicing fitness (ln) (30 °C) | self-splicing fitness (ln) (37 °C)
UGGGAGCAAUAUUACGUAGA | -2.19 ± 0.26 | –
UGGGAGCAAUAUUACGUAGU | – | -1.82 ± 0.28
UGGGAGCAAUAUUACGUGUU | -3.63 ± 0.23 | -2.91 ± 0.34
UGGGAGCAAUAUUACGUUCG | -1.34 ± 0.22 | -0.604 ± 0.3
UGGGAGCAAUAUUACGUUUC | -3.05 ± 0.23 | -1.66 ± 0.4
UGGUAGCAAUAUUACGACAA | -0.344 ± 0.41 | -0.278 ± 0.31
UGGUAGCAAUAUUACGACUG | -0.361 ± 0.25 | -0.806 ± 0.3
UGGUAGCAAUAUUACGAGCU | -2.09 ± 0.093 | -1.02 ± 0.12
UGGUAGCAAUAUUACGCACU | -2.2 ± 0.19 | -0.474 ± 0.22
UGGUAGCAAUAUUACGGCCU | -0.807 ± 0.18 | -0.532 ± 0.39
UGGUAGCAAUAUUACGGCGU | -1.44 ± 0.12 | -0.737 ± 0.12
UGGUAGCAAUAUUACGGGUU | -4.12 ± 0.18 | -3.49 ± 0.24
UGGUAGCAAUAUUACGGUGA | -1.36 ± 0.12 | -1.34 ± 0.12
UGGUAGCAAUAUUACGGUUG | -0.694 ± 0.082 | -0.285 ± 0.11
UGGUAGCAAUAUUACGUAAC | -2.08 ± 0.45 | –
UGGUAGCAAUAUUACGUAUG | -1.66 ± 0.13 | -1.18 ± 0.13
UGGUAGCAAUAUUACGUCAA | -2.31 ± 0.19 | -0.773 ± 0.15
UGGUAGCAAUAUUACGUCAU | -2.49 ± 0.23 | -2.57 ± 0.36
UGGUAGCAAUAUUACGUGGG | -3.64 ± 0.3 | -2.14 ± 0.19
UGUAAGCAAUAUUACGAAUC | -1.82 ± 0.25 | -2.33 ± 0.49
UGUAAGCAAUAUUACGACCU | -0.205 ± 0.13 | -0.0468 ± 0.12
UGUAAGCAAUAUUACGAGCG | 0.195 ± 0.1 | 0.758 ± 0.14
UGUAAGCAAUAUUACGAUAC | -2.7 ± 0.28 | -2.07 ± 0.26
UGUAAGCAAUAUUACGAUCA | 0.319 ± 0.079 | 0.535 ± 0.13
UGUAAGCAAUAUUACGAUCU | 0.361 ± 0.11 | 0.0759 ± 0.13

Sequence | self-splicing fitness (ln) (30 °C) | self-splicing fitness (ln) (37 °C)
UGUAAGCAAUAUUACGAUGC | -3.75 ± 0.27 | -2.34 ± 0.28
UGUAAGCAAUAUUACGCAGG | -3.22 ± 0.16 | -3.06 ± 0.24
UGUAAGCAAUAUUACGCAUA | -0.865 ± 0.18 | -1.69 ± 0.17
UGUAAGCAAUAUUACGCCGG | -1.46 ± 0.12 | -0.237 ± 0.13
UGUAAGCAAUAUUACGCGCU | -0.925 ± 0.078 | -0.315 ± 0.11
UGUAAGCAAUAUUACGCUUA | -1.79 ± 0.15 | -2.39 ± 0.19
UGUAAGCAAUAUUACGCUUG | -4.2 ± 0.42 | -1.99 ± 0.21
UGUAAGCAAUAUUACGGAGA | -2.88 ± 0.32 | -1.97 ± 0.42
UGUAAGCAAUAUUACGGGUG | -0.874 ± 0.18 | -0.00955 ± 0.19
UGUAAGCAAUAUUACGGUAU | – | -1.68 ± 0.21
UGUAAGCAAUAUUACGGUCG | 0.275 ± 0.081 | -0.0342 ± 0.098
UGUAAGCAAUAUUACGGUGC | -3.82 ± 0.35 | -2.13 ± 0.26
UGUAAGCAAUAUUACGGUGU | -3.61 ± 0.22 | -0.0793 ± 0.17
UGUAAGCAAUAUUACGUAAA | -2.36 ± 0.19 | -1.02 ± 0.16
UGUAAGCAAUAUUACGUCCU | -0.564 ± 0.074 | 0.215 ± 0.079
UGUAAGCAAUAUUACGUCUG | -0.606 ± 0.07 | 0.32 ± 0.093
UGUCAGCAAUAUUACGAAAA | -1.06 ± 0.095 | -0.75 ± 0.096
UGUCAGCAAUAUUACGAACA | -0.481 ± 0.068 | 0.521 ± 0.086
UGUCAGCAAUAUUACGAACC | -0.269 ± 0.27 | -0.024 ± 0.26
UGUCAGCAAUAUUACGAACU | -0.744 ± 0.086 | -0.0942 ± 0.086
UGUCAGCAAUAUUACGAGCG | 0.308 ± 0.083 | 0.59 ± 0.11
UGUCAGCAAUAUUACGAGGC | -1.97 ± 0.26 | -3.1 ± 0.32
UGUCAGCAAUAUUACGAGUC | -3.49 ± 0.26 | -2.78 ± 0.25
UGUCAGCAAUAUUACGAUUA | -0.198 ± 0.061 | 0.519 ± 0.088
UGUCAGCAAUAUUACGCAGC | -3.7 ± 0.32 | -0.622 ± 0.24

Sequence | self-splicing fitness (ln) (30 °C) | self-splicing fitness (ln) (37 °C)
UGUCAGCAAUAUUACGCCCC | -0.691 ± 0.29 | 0.0501 ± 0.3
UGUCAGCAAUAUUACGCCCG | -0.222 ± 0.15 | -0.125 ± 0.21
UGUCAGCAAUAUUACGCUCC | -0.598 ± 0.29 | -1.2 ± 0.34
UGUCAGCAAUAUUACGCUGC | -3.54 ± 0.43 | -0.934 ± 0.25
UGUCAGCAAUAUUACGGCGG | -0.922 ± 0.084 | 0.0377 ± 0.12
UGUCAGCAAUAUUACGUCCU | -0.0922 ± 0.06 | -0.325 ± 0.073
UGUCAGCAAUAUUACGUCUU | -0.331 ± 0.071 | -0.0647 ± 0.09
UGUCAGCAAUAUUACGUGCC | -0.825 ± 0.12 | -0.182 ± 0.14
UGUCAGCAAUAUUACGUGCU | -3.51 ± 0.25 | -2.23 ± 0.24
UGUCAGCAAUAUUACGUGGU | -4.15 ± 0.18 | -1.96 ± 0.11
UGUCAGCAAUAUUACGUGUA | -0.648 ± 0.056 | 0.127 ± 0.074
UGUCAGCAAUAUUACGUUUC | – | -2.07 ± 0.28
UGUGAGCAAUAUUACGAACU | -0.733 ± 0.14 | 0.203 ± 0.21
UGUGAGCAAUAUUACGACGG | -1.3 ± 0.34 | -0.759 ± 0.28
UGUGAGCAAUAUUACGAGCA | -0.913 ± 0.16 | -0.797 ± 0.21
UGUGAGCAAUAUUACGAUCU | -1.57 ± 0.15 | -0.175 ± 0.14
UGUGAGCAAUAUUACGCCUG | -1.48 ± 0.16 | -1.05 ± 0.16
UGUGAGCAAUAUUACGCGAU | -3.88 ± 0.33 | -3.57 ± 0.37
UGUGAGCAAUAUUACGCGCG | -1.13 ± 0.43 | –
UGUGAGCAAUAUUACGCGGA | -2.4 ± 0.2 | -1.31 ± 0.21
UGUGAGCAAUAUUACGGACA | -1.44 ± 0.13 | 0.089 ± 0.13
UGUGAGCAAUAUUACGGCCA | -0.0854 ± 0.18 | 0.465 ± 0.34
UGUGAGCAAUAUUACGGCGC | -1.23 ± 0.33 | –
UGUGAGCAAUAUUACGGGAA | – | -2.51 ± 0.33
UGUGAGCAAUAUUACGGGGA | -2.36 ± 0.29 | -1.65 ± 0.33
